Reference: patent EP1340979A2, “Neuropeptide receptor and uses thereof” (Pfizer Limited, priority 2002, dated 2003)
Where a SMILES comes first, the peptide text is derived from it. Bridges are numbered along the chain shown (N, C = ends). [ ]: non-standard residue; d: D form. The star is where a group is joined. d2Nal = N[C@H](Cc1ccc2ccccc2c1)C(=O)O; Nle = CCCC[C@H](N)C(=O)O; Ahp = NCCCCCCC(=O)O; Bn = c1ccc(C*)cc1

target: receptor MRGX2 (human) (UniProt Q96LB1); test: cell-based or functional assay; conditions: not given

| Molecule | EC50 (µM), intracellular calcium mobilisation (FLIPR) [µM] |
| --- | --- |
| NPSF (peptide) | > 10 |
| Cyclosomatostatin (peptide) | 1.47 |
| Oxytocin (from UniProt P01178 20-28) (peptide) | 1.47 |
| Octreotide (peptide) | > 10 |
| Nociceptin (from UniProt Q13519 130-146) (peptide) | > 10 |
| Dynorphin A (from UniProt P01213 207-219) (peptide) | 1.85 |
| HS014 (peptide) | > 10 |
| Somatostatin 14 (from UniProt P61278 89-116) (peptide) | 0.78 |
| NPVF (from UniProt Q9HCQ7 124-131) (peptide) | > 10 |
| HS024 (Acetyl-Cys^3,Nle^4,Arg^5,D-2-Nal^7,Cys^11)-α-MSH (3-11) amide (from UniProt P01189 140-148) (peptide) | 0.42 |
| D-Trp-Somatostatin (from UniProt P61278 103-116) (peptide) | 0.179 |
| Hexarelin (peptide) | 9.5 |
| N9642 (β-(2-Naphthyl)-D-Ala-Cys-Tyr-D-Trp-Lys-Val-Cys-Thr amide [Disulfide Bridge: 2-7] (sst2R agonist)) (peptide) | 0.251 |
| (Deamino-Cysl,D-Orn^8) Vasopressin (from UniProt P01185 20-28) (peptide) | > 10 |
| (Ser^4, Ile^8)-Oxytocin (from UniProt P01178 20-28) (peptide) | 7.4 |
| Apelin 13 (from UniProt Q9ULZ1 65-77) (peptide) | > 10 |
| BAM 13-22 (from UniProt P01211 37-46) (peptide) | 0.1 |
| NPAF (from UniProt O15130 93-110) (peptide) | > 10 |

target: five known SST receptors; test: not given; conditions: range over the five known SST receptors; cited from earlier work

| Molecule | EC50 [nM] |
| --- | --- |
| Cortistatin (PCKNFFWKTFSSCK) [CST, cyclic peptide derived from a prepropeptide of 114 residues in man] | 0.25 to 0.9 |

target: MC4 receptor (Homo sapiens, UniProt P32245); test: not given; conditions: cited from earlier work
Sequence (P32245 whole entry): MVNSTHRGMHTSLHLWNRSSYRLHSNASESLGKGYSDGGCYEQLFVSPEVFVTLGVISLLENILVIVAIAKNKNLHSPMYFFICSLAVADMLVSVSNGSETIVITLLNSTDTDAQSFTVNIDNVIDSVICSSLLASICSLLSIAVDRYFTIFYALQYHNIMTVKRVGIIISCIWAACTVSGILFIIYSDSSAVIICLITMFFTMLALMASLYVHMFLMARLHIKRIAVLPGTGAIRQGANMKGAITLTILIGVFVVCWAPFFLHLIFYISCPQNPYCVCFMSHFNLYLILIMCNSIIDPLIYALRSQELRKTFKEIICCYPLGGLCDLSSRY

| Molecule | Ki [nM] |
| --- | --- |
| CCCC[C@@H]1NC(=O)[C@@H](NC(C)=O)CSSC[C@@H](C(N)=O)NC(=O)CNC(=O)[C@H](Cc2c[nH]c3ccccc23)NC(=O)[C@H](CCCNC(=N)N)NC(=O)[C@@H](Cc2ccc3ccccc3c2)NC(=O)[C@H](Cc2c[nH]cn2)NC(=O)[C@H](CCCNC(=N)N)NC1=O [HS024, (Acetyl-Cys^3,Nle^4,Arg^5,D-2-Nal^7,Cys^11)-a-MSH (3-11) amide] (Ac-C[Nle]RH[d2Nal]RWGC-NH2; disulfide 1-9 (inferred)) | 0.29 |

tested on: SNSR3; test: not given; conditions: SNSR3 (MRGX1); cited from earlier work

| Molecule | EC50 [nM] |
| --- | --- |
| Bovine adrenal medulla peptide 22 [BAM 22] | 13 |

tested on: not given; test: not given; conditions: i.c.v. administration, free feeding rats, maximal response at 1nmol dose; cited from earlier work

| Molecule | food intake |
| --- | --- |
| CCCC[C@@H]1NC(=O)[C@@H](NC(C)=O)CSSC[C@@H](C(N)=O)NC(=O)CNC(=O)[C@H](Cc2c[nH]c3ccccc23)NC(=O)[C@H](CCCNC(=N)N)NC(=O)[C@@H](Cc2ccc3ccccc3c2)NC(=O)[C@H](Cc2c[nH]cn2)NC(=O)[C@H](CCCNC(=N)N)NC1=O [HS024, (Acetyl-Cys^3,Nle^4,Arg^5,D-2-Nal^7,Cys^11)-a-MSH (3-11) amide] (Ac-C[Nle]RH[d2Nal]RWGC-NH2; disulfide 1-9 (inferred)) | dose dependant increase in food intake |

target: T1, receptor MRGX2 (Homo sapiens, UniProt Q96LB1); test: Functional assay measuring intracellular calcium mobilisation (FLIPR); format: cell-based; design: expressed in transfected cells; host or cells: e.g. HEK293 or CHO-K1 engineered to stably express Galpha15 / Gqi-5; conditions: not given
T1 sequence (Q96LB1 1-330): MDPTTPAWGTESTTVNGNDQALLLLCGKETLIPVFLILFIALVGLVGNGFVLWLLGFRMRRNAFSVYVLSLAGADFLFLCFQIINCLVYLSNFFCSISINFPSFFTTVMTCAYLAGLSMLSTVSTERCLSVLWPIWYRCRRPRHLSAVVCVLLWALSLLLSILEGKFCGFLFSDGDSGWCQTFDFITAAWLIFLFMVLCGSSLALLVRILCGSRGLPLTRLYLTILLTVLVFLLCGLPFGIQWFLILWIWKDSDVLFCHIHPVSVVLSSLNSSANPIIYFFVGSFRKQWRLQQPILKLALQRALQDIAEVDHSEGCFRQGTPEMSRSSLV

| Molecule | EC50 [nM] |
| --- | --- |
| CSCC[C@H](NC(=O)[C@@H]1CCCN1C(=O)CNC(=O)[C@H](CCCCN)NC(=O)[C@H](Cc1cnc[nH]1)NC(=O)[C@H](CO)NC(=O)[C@H](CC(C)C)NC(=O)[C@H](CCCNC(=N)N)NC(=O)[C@@H]1CCCN1C(=O)[C@H](CCCNC(=N)N)NC(=O)[C@@H](N)CCC(N)=O)C(=O)N1CCC[C@H]1C(=O)N[C@@H](Cc1ccccc1)C(=O)O [Apelin 13] | > 10000 |

same assay, conditions: Preliminary EC50 data for receptor MRGX2; transiently transfected host cells expressing Gα15 / Gqi-5, Fluo3 fluorescence; read-out: EC50

| Molecule | EC50 [nM] |
| --- | --- |
| CC(C)[C@@H]1NC(=O)[C@H](CCCCN)NC(=O)[C@@H](Cc2c[nH]c3ccccc23)NC(=O)[C@H](Cc2ccc(O)cc2)NC(=O)[C@@H](NC(=O)[C@H](N)Cc2ccc3ccccc3c2)CSSC[C@@H](C(=O)N[C@H](C(N)=O)[C@@H](C)O)NC1=O [Peptide N9642, β-(2-Naphthyl)-D-Ala-Cys-Tyr-D-Trp-Lys-Val-Cys-Thr amide [Disulfide Bridge: 2-7]] | 251 |
| CC(C)C[C@H](NC(=O)[C@H](CC(N)=O)NC(=O)[C@@H]1CCCN1C(=O)[C@@H](N)C(C)C)C(=O)N1CCC[C@H]1C(=O)N[C@@H](CCC(N)=O)C(=O)N[C@@H](CCCNC(=N)N)C(=O)N[C@@H](Cc1ccccc1)C(N)=O [NPVF] | > 10000 |
| CC[C@H](C)[C@@H]1NC(=O)[C@H](Cc2ccc(O)cc2)NC(=O)[C@@H](N)CSSC[C@@H](C(=O)N2CCC[C@H]2C(=O)N[C@H](C(=O)NCC(N)=O)[C@@H](C)CC)NC(=O)[C@H](CC(N)=O)NC(=O)[C@H](CO)NC1=O [(Ser^4, Ile^8)-Oxytocin] (H-CYISNCPIG-NH2; disulfide 1-6) | 7400 |
| C[C@H](N)C(=O)NCC(=O)N[C@H]1CSSC[C@@H](C(=O)O)NC(=O)[C@H](CO)NC(=O)[C@H]([C@@H](C)O)NC(=O)[C@H](Cc2ccccc2)NC(=O)[C@H]([C@@H](C)O)NC(=O)[C@H](CCCCN)NC(=O)[C@@H](Cc2c[nH]c3ccccc23)NC(=O)[C@H](Cc2ccccc2)NC(=O)[C@H](Cc2ccccc2)NC(=O)[C@H](CC(N)=O)NC(=O)[C@H](CCCCN)NC1=O [D-Trp-Somatostatin] | 179 |
| C[C@@H](OCc1ccccc1)[C@@H]1NC(=O)[C@H](CCCCN)NC(=O)[C@@H](Cc2c[nH]c3ccccc23)NC(=O)[C@H](Cc2ccccc2)NC(=O)CCCCCCNC1=O [Cyclosomatostatin] (cyclo([Ahp]F[dW]KT(Bn)); ring closure inferred) | 1470 |
| CC[C@H](C)[C@@H]1NC(=O)[C@H](Cc2ccc(O)cc2)NC(=O)[C@@H](N)CSSC[C@@H](C(=O)N2CCC[C@H]2C(=O)N[C@@H](CC(C)C)C(=O)NCC(N)=O)NC(=O)[C@H](CC(N)=O)NC(=O)[C@H](CCC(N)=O)NC1=O [Oxytocin] | 1470 |

same assay, conditions: at a concentration of 1µM

| Molecule | response of the MRGX2 receptor |
| --- | --- |
| α-MSH | responds |
| γ-MSH | responds |

target: T1, receptor MRGX2; test: as above; format: cell-based; design: expressed in transfected cells; host or cells: host cell line, e.g. HEK293 or CHO-K1, engineered to stably express Gα15 / Gqi-5; conditions: Preliminary EC50 data for receptor MRGX2; transiently transfected host cells expressing Gα15 / Gqi-5, Fluo3 fluorescence
Method: 5 x 10^6 cells of a suitable host cell line, chosen to express a low number of endogenous receptors (e.g. HEK293 or CHO-K1) and engineered to stably express Gα15 / Gqi-5, were transiently transfected with 7.5 µg of cDNA encoding receptor MRGX2 in a suitable mammalian cell expression vector, or vector alone, using Lipofectamine Plus® reagent (Gibco BRL) as per the manufacturer's protocol. If the cells were intended for a ligand binding assay or microphysiometry, they were incubated for 24-72 hours post transfection, and then harvested. […]
Fluorescence Imaging Plate Reader (FLIPR®) technology was employed as a means to detect activation of receptor MRGX2 by various potential GPCR agonists.
Cells were transfected as described in Example 3. […] The FLIPR® processing involved reading the fluorescence for all samples for 2 minutes; during this time the fluorescence baseline was determined for 10 seconds. The desired amount of compounds (i.e. potential GPCR agonists) was then automatically transferred to the wells and the fluorescence was continuously monitored for the remainder of the time. […]
Compounds capable of acting as agonists for the receptor were identified by them causing a transient rise in fluorescence, and therefore in intracellular calcium, in the cells.

| Molecule | EC50 |
| --- | --- |
| Nc1ncnc2nc[nH]c12 [Adenine] | No response |
